The source of these data is patent publication US20260137759A1.

In one experiment the target is TGFβ1 (R&D systems) (UniProt P01137). Nature of the experiment: cell-based or functional assay.
Experiment [1] has as its target IL2Rβ and common γ chain (on 32Dβ cells). Nature of the experiment: cell-based or functional assay.

Chain of UniProt P01137 (P01137 279-390 limits assumed): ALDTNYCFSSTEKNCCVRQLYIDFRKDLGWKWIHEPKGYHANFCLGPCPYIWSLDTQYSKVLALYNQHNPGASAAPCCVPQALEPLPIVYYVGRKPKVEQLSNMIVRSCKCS

On to “TGFR-Fc (R&D Systems) (from UniProt P37173 24-159) (Fc fusion)”, for which, in the experiment with TGFβ1 (R&D systems), the IC50, inhibition of TGFβ1 activity in HEK-Blue TGFβ cells (QUANTI-Blue OD 620-655 nM) was determined as 0.461 nM.
As to “recombinant IL-15 (from UniProt P40933 49-162) (ligand)”, the EC50, 32Dβ cell proliferation (WST1, absorbance 450 nM) in experiment [1] stood at 0.0106 nM.
